The target in test [1] is TSH (thyroid stimulating hormone) in HISCL (trademark) TSH Calibrators C0 to C5 (Sysmex Corporation) (UniProt P01215). The test is described as follows: chemiluminescent sandwich ELISA on D-streptavidin-immobilized plate; TSH 50 µIU/mL, five samples. On the technique in general: In an ELISA, binding on a coated surface is turned into a signal by an enzyme label.
The target is the same in test [2]. The test is described as follows: chemiluminescent sandwich ELISA on D-tamavidin 2-immobilized plate; TSH 50 µIU/mL.
Test [3] has the same target. The experiment in a line: chemiluminescent sandwich ELISA on D-streptavidin-immobilized plate; TSH 50 µIU/mL.
Test [4] shares this target. The test is described as follows: chemiluminescent sandwich ELISA on D-tamavidin 2-immobilized plate; TSH 200 µIU/mL.
Test [5] shares this target. The experiment in a line: chemiluminescent sandwich ELISA on D-tamavidin 2-immobilized plate; TSH 10 µIU/mL.
Test [6] shares this target. The experiment in a line: chemiluminescent sandwich ELISA on D-tamavidin 2-immobilized plate; TSH 0 µIU/mL (blank).
The target is the same in test [7]. The test is described as follows: chemiluminescent sandwich ELISA on D-tamavidin 2-immobilized plate; TSH 2 µIU/mL.
For test [8] the target is unchanged. The test is described as follows: chemiluminescent sandwich ELISA on D-streptavidin-immobilized plate; TSH 200 µIU/mL.
The target is the same in test [9]. The test is described as follows: chemiluminescent sandwich ELISA on D-streptavidin-immobilized plate; TSH 0 µIU/mL (blank).
Test [10] has the same target. The test is described as follows: chemiluminescent sandwich ELISA on D-tamavidin 2-immobilized plate; TSH 120 µIU/mL.
Test [11] has the same target. The experiment in a line: chemiluminescent sandwich ELISA on D-streptavidin-immobilized plate; TSH 10 µIU/mL.
For test [12] the target is unchanged. The experiment in a line: chemiluminescent sandwich ELISA on D-streptavidin-immobilized plate; TSH 2 µIU/mL.
Test [13] has the same target. The test is described as follows: chemiluminescent sandwich ELISA on D-tamavidin 2-immobilized plate; TSH 50 µIU/mL, five samples.
Test [14] has the same target. The test is described as follows: chemiluminescent sandwich ELISA on D-streptavidin-immobilized plate; TSH 120 µIU/mL.

Chain of TSH (thyroid stimulating hormone) in HISCL (trademark) TSH Calibrators C0 to C5 (Sysmex Corporation) (P01215 25-116, chain 1 of 2): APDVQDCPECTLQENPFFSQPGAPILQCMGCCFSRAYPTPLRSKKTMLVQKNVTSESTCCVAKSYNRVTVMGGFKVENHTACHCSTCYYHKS
Chain of TSH (thyroid stimulating hormone) in HISCL (trademark) TSH Calibrators C0 to C5 (Sysmex Corporation) (P01222 21-132, chain 2 of 2, further chain): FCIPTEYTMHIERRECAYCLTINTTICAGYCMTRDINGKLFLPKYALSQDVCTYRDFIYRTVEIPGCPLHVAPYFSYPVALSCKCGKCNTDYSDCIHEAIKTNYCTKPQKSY

In the case of “L-biotin-labeled TSH antibody (thyroid stimulating hormone antibody T2-194, KITAYAMA LABES CO., LTD., labeled with L-biotin-AC5-OSu)”, the Count value (average of five samples) stood at 410000 count in test [1] and 668000 count in [13]. The Count value in [2] turned out to be 700000 count; in test [3], 442000 count; in test [4] it was 1.58e+06 count; in test [5], 150000 count; in test [6], 363 count; in test [7] it was 35300 count. Besides, the Count value was found to be 1.26e+06 count in test [8]; 1010 count in [9]; 1.32e+06 count in test [10]; 80400 count in test [11]; 17300 count in [12]; 967000 count in test [14].

Values taken from patent US20230288411A1, “POLYPEPTIDE, MULTIMER, SOLID PHASE, MEASUREMENT METHOD FOR TEST SUBSTANCE, AND REAGENT KIT” (SYSMEX CORPORATION, priority 2020, published 2023).
